US20120288507A1 (Amgen, published 2012)
Where a chain is given by its changes, count along the chain named.

Assays:
human WISE [1] = biological target: T1, human WISE (human, UniProt Q6X4U4 24-206); assay: murine hybridoma antibodies; assay not given
T1 construct: Recombinant protein secreted from mammalian cells; also called hWISE; huWISE
T1 sequence: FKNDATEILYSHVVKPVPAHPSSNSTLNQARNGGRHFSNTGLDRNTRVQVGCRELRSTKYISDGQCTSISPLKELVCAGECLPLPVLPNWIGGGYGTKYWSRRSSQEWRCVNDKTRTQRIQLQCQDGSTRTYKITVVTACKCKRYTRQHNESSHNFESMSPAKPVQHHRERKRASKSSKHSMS

[2] = biological target: T2, biotinylated recombinant human WISE (human, UniProt Q6X4U4 24-206, biotinylated (site not stated)); assay: Octet QK, crude conditioned medium, streptavidin biosensors with biotinylated human WISE
T2 construct: Same protein as m1, biotinylated; Used in the AlphaScreen with LRP6, in phage panning and on the Octet streptavidin biosensors; also called biotinylated huWise; biotinylated human WISE
T2 sequence: T1 sequence
Procedure: Affinity maturation was performed on D14 IgG2 in order to improve the inhibitory activity. Every residue in all CDRs of heavy chain (31 positions) and light chain (29 positions) was mutated by randomized mutagenesis. Seven heavy chain mutations in 5 positions and ten light chain mutations in 6 positions that improved the binding to human WISE were identified by affinity measurement on Octet QK (ForteBio) using crude condition medium samples and streptavidin Biosensors coated with biotinylated human WISE. L34, L36, H66 and H127 were four top single-residue mutants. Beneficial heavy chain mutation and light chain mutation were paired in matrix by transient transfection in 293 6E cells to yield further improved double mutants (DM, one mutation in heavy chain and one in light chain). Ten DM mutants were selected. Two best heavy chain mutations (H66 and H127) were combined by overlapping PCR. The resulted heavy chain with double mutations was paired with L34 or L36 to yield two triple mutants (TM1 and TM2).

human WISE [3] = biological target: T1, human WISE; assay: capture ELISA binding profile (FIG. 28)
Procedure: (§1) Relative capture of individual WISE mutant proteins or wild type proteins by either neutralizing antibodies or non-neutralizing antibodies was compared to assess whether any of these single amino acid changes affects the binding of an antibody to WISE protein. The bound WISE proteins were then detected using HRP-conjugated affinity-purified polyclonal antibody against WISE.
(§2) Purified anti-WISE antibodies (0.5 ug/ml) were added onto high-binding ELISA plates pre-coated with 1 ug/ml of goat anti-mouse IgG Fc (Pierce). Plates were incubated for 1 hour in room temperature. Plates were then washed 4× with Wash Buffer. Subsequently alanine scanned WISE loop-2 mutant supernatants from transient transfection cultures (100× diluted) were added and incubated for 1 hour in room temperature. After 4× wash, rabbit anti-WISE Pab-biotin (50 ng/ml)+NeutrAvidin-HRP (Pierce, Cat #31001) were added onto the plates and incubated for 1 hour in room temperature. Plates were again washed 4× with Wash Buffer. Binding was analyzed using 1-Step Ultra TMB-ELISA substrate (Pierce; Cat #34028) according to the manufacturer's instructions.

human WISE L110A [4] = biological target: T3, human WISE L110A (human, UniProt Q6X4U4 24-206); assay: capture ELISA, WISE mutant supernatant (FIG. 28)
T3 construct: Alanine mutant of loop 2, used as supernatant of transiently transfected mammalian cells
T3 chain: T1 sequence with L87A
Procedure: as §1, §2

human WISE N112A [5] = biological target: T4, human WISE N112A (human, UniProt Q6X4U4 24-206); assay: capture ELISA, WISE mutant supernatant (FIG. 28)
T4 construct: Alanine mutant of loop 2, used as supernatant of transiently transfected mammalian cells
T4 chain: T1 sequence with N89A
Procedure: as §1, §2

human WISE G117A [6] = biological target: T5, human WISE G117A (human, UniProt Q6X4U4 24-206); assay: capture ELISA, WISE mutant supernatant (FIG. 28)
T5 construct: Alanine mutant of loop 2, used as supernatant of transiently transfected mammalian cells
T5 chain: T1 sequence with G94A
Procedure: as §1, §2

human WISE N112A [7] = biological target: T4, human WISE N112A; assay: capture ELISA, WISE mutant supernatant (FIG. 25)
Procedure: as §1, §2

human WISE I114A [8] = biological target: T6, human WISE I114A (human, UniProt Q6X4U4 24-206); assay: capture ELISA, WISE mutant supernatant (FIG. 25)
T6 construct: Alanine mutant of loop 2, used as supernatant of transiently transfected mammalian cells
T6 chain: T1 sequence with I91A
Procedure: as §1, §2

human WISE G115A [9] = biological target: T7, human WISE G115A (human, UniProt Q6X4U4 24-206); assay: capture ELISA, WISE mutant supernatant (FIG. 25)
T7 construct: Alanine mutant of loop 2, used as supernatant of transiently transfected mammalian cells
T7 chain: T1 sequence with G92A
Procedure: as §1, §2

human WISE K121A = biological target: T8, human WISE K121A (human, UniProt Q6X4U4 24-206); assay: capture ELISA, WISE mutant supernatant (FIG. 25)
T8 construct: Alanine mutant of loop 2, used as supernatant of transiently transfected mammalian cells
T8 chain: T1 sequence with K98A
Procedure: as §1, §2

human WISE [10] = biological target: T1, human WISE; assay: capture ELISA binding profile (FIG. 26)
Procedure: as §1, §2

human WISE N112A [11] = biological target: T4, human WISE N112A; assay: capture ELISA, WISE mutant supernatant (FIG. 26)
Procedure: as §1, §2

human WISE I114A [12] = biological target: T6, human WISE I114A; assay: capture ELISA, WISE mutant supernatant (FIG. 26)
Procedure: as §1, §2

human WISE L110A [13] = biological target: T3, human WISE L110A; assay: capture ELISA, WISE mutant supernatant (FIG. 27)
Procedure: as §1, §2

human WISE N112A [14] = biological target: T4, human WISE N112A; assay: capture ELISA, WISE mutant supernatant (FIG. 27)
Procedure: as §1, §2

human WISE G117A [15] = biological target: T5, human WISE G117A; assay: capture ELISA, WISE mutant supernatant (FIG. 27)
Procedure: as §1, §2

human WISE [16] = biological target: T1, human WISE; assay: capture ELISA binding profile (FIG. 23)
Procedure: as §1, §2

human WISE G115A [17] = biological target: T7, human WISE G115A; assay: capture ELISA, WISE mutant supernatant (FIG. 23)
Procedure: as §1, §2

human WISE G117A [18] = biological target: T5, human WISE G117A; assay: capture ELISA, WISE mutant supernatant (FIG. 23)
Procedure: as §1, §2

human WISE [19] = biological target: T1, human WISE; assay: capture ELISA binding profile (FIG. 24)
Procedure: as §1, §2

human WISE G115A [20] = biological target: T7, human WISE G115A; assay: capture ELISA, WISE mutant supernatant (FIG. 24)
Procedure: as §1, §2

human WISE G117A [21] = biological target: T5, human WISE G117A; assay: capture ELISA, WISE mutant supernatant (FIG. 24)
Procedure: as §1, §2

B1: Ab-AD (antibody, V domains shown)
VH: EVQLQQSGTVLARPGASVKMSCKASGYTFTSYWMHWVKQRPGQGLEWIVAIYPGNSDTNYNQKFKGKAKLTAVTSTSTAYMELNSLTNEDSAVYYCVRGFITAPYFDYWGQGTTLTVSS
VL: DIQMTQSPASLAASVGESITITCQASENIYFSLAWYQQKQGRSPQLLIYHAKSLEDGVPSRFSGSGSGTQYSMKINSMQPEDTATYFCKQAYDHPFTFGTGTKLEMK
notes: Murine monoclonal antibody from hybridoma
Human WISE [1]
  binding result: binds

B2: D14 IgG2 single-residue mutant L34 (antibody, V domains shown)
VH: EVQLLESGGGLVQPGGSLRLSCAASGFTFSLYTMQWVRQAPGKGLEWVSGIGSSGGGTSYADSVKGRFTISRDNSKNTLYLQMNSLRAEDTAVYYCARGVSSWFFEYWGQGTLVTVSS
VL: QYELTQPPSVAVSPGKTASITCAGDELGGKYAAWYQQKPGQAPVLVVYDDSDRPSGIPERFSGSNSGNTATLTISRVEAGDEADYYCQVWDRSSYHVVFGGGTKLTVLG
notes: L34 is a mutant label, not a residue number; Tested as crude conditioned medium; also called L34(LC CDR1-7G)
[2]
  binding result: binds

B3: D14 IgG2 single-residue mutant H127 (antibody, V domains shown)
VH: B2 VH with S102G
VL: B2 VL with G29N
notes: H127 is a mutant label, not a residue number; Tested as crude conditioned medium; also called H127(HC CDR3-4G)
[2]
  binding result: binds

B4: D14-L36 (antibody, human IgG2, lambda, V domains shown)
VH: B2 VH
VL: B2 VL with G29S
notes: Tested as crude conditioned medium; also called L36(LC CDR1-7S); LC-CDR1-7 N->S
[2]
  binding result: binds

B5: D14 IgG2 single-residue mutant H66 (antibody, V domains shown)
VH: B2 VH with G57P
VL: B2 VL with G29N
notes: H66 is a mutant label, not a residue number; Tested as crude conditioned medium; also called H66(HC CDR2-8P)
[2]
  binding result: binds

B6: Ab-AF (antibody, V domains shown)
VH: QIQLVQSGPELKKPGETVKISCKASGYTFTDYSMHWVKQAPGKGLKWMGWINTETGEPTYADDFKGRFAFSLETSASTACLEINNLKNEDTATYFCSLTGYWGQGTSVTVSS
VL: DIQMTQSPASLSASVGETVTITCGASENIYGALNWYQRKQGKSPQVLIYGATNLADGMSSRFSGSGSGRQYSLKISSLHPDDVAMYYCQNVFSSPLTFGAGTKLELK
notes: Murine monoclonal antibody purified from hybridoma; also called WISE Loop 2 Mab (Ab-AF)
Human WISE [3]
  binding result: binds
Human WISE L110A [4]
  binding result: binds
Human WISE N112A [5]
  binding result: binds
Human WISE G117A [6]
  binding result: binds

B7: Ab-AA (antibody, V domains shown)
VH: EVQLQQSGAELVRSGASVKLSCTASGFNIKDYYIHWMKQRPEQGLEWIGWIDPENGDTESAPKFQGKATMTADTSSNTAYLHLSSLTFEDTAVYYCNAEGYGSRHWYFDVWGAGTTVTVSS
VL: DIVMSQSPSSLAVSAGEKVTMSCKSSQSLLNSRTRKNYLAWYQQKPGQSPKLLIYWASTRQSGVPDRFTGSGSGTDFTLTISSVQAEDLAVYYCKQSYNLLTFGAGTKLELK
notes: Murine monoclonal antibody purified from hybridoma; also called WISE Loop 2 Mab (Ab-AA)
Human WISE N112A [7]
  binding result: binds
Human WISE I114A [8]
  binding result: binds
Human WISE G115A [9]
  binding result: binds
Human WISE K121A
  binding result: binds
Human WISE [1]
  binding result: binds

B8: Ab-AH (antibody, V domains shown)
VH: B7 VH with K19R, Y32F, I34M, M37L, H82Q, F88S, Y95C, G102D, S103N, R104S
VL: B7 VL with Q61K, T69I, L101V
notes: Murine anti-WISE monoclonal antibody; also called WISE Loop 2 Mab (Ab-AH)
Human WISE [10]
  binding result: binds
Human WISE N112A [11]
  binding result: binds
Human WISE I114A [12]
  binding result: binds

B9: Ab-AJ (antibody, V domains shown)
VH: EVQLQQSGAELVRSGASVKLSCTASGFNIKDYYMHWVKQRPEQGLEWIGWIDPENGDTEYAPKFQGKATMTADTSSNTAYLQLSSLTSEDTAVYYCNFYDVYSEGALDYWGQGTSVTVSS
VL: B7 VL with Q61E, L101P, A105G, L111I
notes: Murine anti-WISE monoclonal antibody; also called WISE Loop 2 Mab (Ab-AJ)
Human WISE L110A [13]
  absorbance: ≤ 1.5 absorbance
Human WISE N112A [14]
  absorbance: ≤ 1.5 absorbance
Human WISE G117A [15]
  absorbance: ≤ 1.5 absorbance

B10: Ab-AI (antibody, V domains shown)
VH: QVTLKESGPGILQPSQTLSLTCSFSGFSLTTSGMGVSWIRQPSGGSLEWLAHIFWDDDKRYNPSLTSRLTISKDASRNQVFLKISSVDTADAATYYCARGGDYYSTGFGFDYWGQGTLVTVSA
VL: DIVVSQAPSSLAVSVGEKIIMSCKSSQSLLHSSNQRNYLAWYQQKPGQSPKLLISWASIRESGVPDRFTGSGSGTDFTLTISSVKTEDLAVYYCHQYYSYSTFGAGTKLELK
notes: Murine anti-WISE monoclonal antibody; also called WISE Loop 2 Mab (Ab-AI)
Human WISE [16]
  binding result: binds
Human WISE G115A [17]
  binding result: binds
Human WISE G117A [18]
  binding result: binds

B11: Ab-AC (antibody, V domains shown)
VH: B10 VH with G10E, S76P, S85T
VL: B10 VL with Q35R, V91I, S99T
notes: Murine monoclonal antibody purified from hybridoma; also called WISE Loop 2 Mab (Ab-AC)
Human WISE [19]
  binding result: binds
Human WISE G115A [20]
  binding result: binds
Human WISE G117A [21]
  binding result: binds
